Our source for the IC50 (read off the curve), EC50 (read off the curve) and Kd values is patent US20160122421A1.

By EC50 (read off the curve) is commonly meant the concentration giving half of the maximal effect. What is called Kd is the concentration at which binding is half-saturated.

The target in test [1] is humanized variant of IPN002 (hu-IPN002). The experiment in a line: competition ELISA; competitor: biotin-Tau 15-44 on hu-IPN002. For orientation: In an ELISA, binding on a coated surface is turned into a signal by an enzyme label.
For test [2], the target named is 383 amino acid recombinant tau (UniProt P10636). The experiment in a line: ELISA binding assay, A450.
The target is the same in test [3]. Nature of the test: ELISA, serially diluted hu-IPN002 with biotin-rTau383.
The target is the same in test [4]. Nature of the test: solid phase ELISA, biotin-rTau383, A450.
Test [5] shares this target. Nature of the test: ELISA, solution phase, biotin-rTau383.
The next test deals with biotin-phospho Tau 15-24. The experiment in a line: ELISA, serially diluted hu-IPN002 with biotin-Tau 15-24 PHOSPHO.
For test [6], the target named is 383 amino acid recombinant tau (UniProt P10636). The experiment in a line: peptide binding ELISA (A450), hu-IPN002 titrated.
In another test the target is biotin-Tau 15-24. Nature of the test: ELISA, serially diluted hu-IPN002 with biotin-Tau 15-24.
Test [7] has as its target 383 amino acid recombinant tau (UniProt P10636). Nature of the test: peptide binding ELISA (A450), hu-IPN002 titrated; table under the curves.
Test [8] shares this target. The experiment in a line: ELISA, solid phase, biotin-rTau383.
Test [9] has the same target. Nature of the test: solution phase ELISA, biotin-rTau383, A450.

Sequence of 383 amino acid recombinant tau (P10636 other isoform, or with tags, fused parts or gaps limits assumed): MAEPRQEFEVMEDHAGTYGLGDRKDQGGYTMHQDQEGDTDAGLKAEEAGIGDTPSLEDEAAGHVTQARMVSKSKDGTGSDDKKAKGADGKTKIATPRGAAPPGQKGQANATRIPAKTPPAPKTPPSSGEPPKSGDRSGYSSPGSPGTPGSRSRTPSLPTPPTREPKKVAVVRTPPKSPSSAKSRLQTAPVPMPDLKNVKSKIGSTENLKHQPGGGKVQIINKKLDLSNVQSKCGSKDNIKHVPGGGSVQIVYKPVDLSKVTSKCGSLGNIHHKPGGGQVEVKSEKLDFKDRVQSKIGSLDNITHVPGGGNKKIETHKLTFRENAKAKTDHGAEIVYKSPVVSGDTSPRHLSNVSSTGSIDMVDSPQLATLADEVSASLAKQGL
Sequence of Peptide 2 (Tau amino acids 15-44) (peptide): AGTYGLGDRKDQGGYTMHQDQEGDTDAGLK

On to Peptide 2 (Tau amino acids 15-44), for which, in test [1], the IC50 (read off the curve) came out at 100 nM.

On to “humanized variant of IPN002 (hu-IPN002) (antibody)”, for which the EC50 (read off the curve) in test [2] is 0.3 nM; in test [4], 0.1 nM; in test [6], 0.3 nM; in [9], 0.1 nM. The equilibrium dissociation constant (Kd) worked out at 0.288 nM in test [2]; 0.283 nM in test [3]; 0.114 nM in test [5]; 0.768 nM in the test with biotin-phospho Tau 15-24; 0.754 nM with biotin-Tau 15-24; 0.288 nM in test [7]. In test [8], the Kd worked out at 0.107 nM.
